Reference: doi:10.1101/2025.04.30.651496 (bioRxiv, 2025)

Target: the molecule itself
Assay: cryo-EM structure

B1: untagged G3BP2 NTF2L domain (amino acids 1-139) (domain or fragment)
chain: MVMEKPSPLLVGREFVRQYYTLLNKAPEYLHRFYGRNSSYVHGGVDASGKPQEAVYGQNDIHHKVLSLNFSECHTKIRHVDAHATLSDGVVVQVMGLLSNSGQPERKFMQTFVLAPEGSVPNKFYVHNDMFRYEDEVFG
  stoichiometry N: 2
